First the molecules themselves.
B1: glmS ribozyme (parent)
chain: AUAAAAGCGCCAGAACUACAGAAAUGUAGUUGACGAGGAGGAGGUUUAUCGAAUUUUCGGCGGAUGCCUCCAAA

Common to all, as to settings: with glucosamine-6-phosphate
Data set [1] covers variants of B1. The experiment in a line: self-cleavage kobs at 40 uM GlcN6P; higher = faster cleavage; RNA array. Put shortly: (§1)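 Barcoded glmS ribozyme variants on sequenced MiSeq chips were transcribed in situ by E. coli RNA polymerase and tracked through a hybridised Cy3 probe at 37 °C. Glucosamine-6-phosphate (40 μM to 10 mM) in HEPES/KCl/Mg(OAc)2 buffer was flowed in, and tiles were imaged over ~14 h. Signals were normalised to baseline and to non-cleaving reference variants; per-tile medians were fit to one- or two-exponential decays to give kobs. kcat and KM came from weighted Michaelis–Menten fits across concentrations.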

Variants of B1 are the subject of data set [2]. Kind of data set: self-cleavage kobs at 640 uM GlcN6P; higher = faster cleavage; RNA array. Put shortly: as §1
Data set [3] covers variants of B1. The experiment in a line: self-cleavage kobs at 2500 uM GlcN6P; higher = faster cleavage; RNA array. Put shortly: as §1
The variants in data set [4] derive from B1. The experiment in a line: self-cleavage kobs at 10000 uM GlcN6P; higher = faster cleavage; RNA array. Summed up: as §1
In data set [5] the parent is B1. The experiment in a line: self-cleavage kobs at 160 uM GlcN6P; higher = faster cleavage; RNA array. Put shortly:
as §1

Variants at the floor of the assay were thinned out.

On to AUAAAAGCGCGAGAACUACAGAAAUGUAGUUGACGAGGAGAAGGUUUAUCGAAUUUUCGGCGGAUGCCUCCAAA [C11G G41A], for which, in the data set with glucosamine-6-phosphate [1], the “self-cleavage kobs at 40 uM GlcN6P” value is less than 1e-05 s⁻¹. Besides, in the data set with glucosamine-6-phosphate [2], the “self-cleavage kobs at 640 uM GlcN6P” value was less than 1e-05 s⁻¹. For the same variant, in the data set with glucosamine-6-phosphate [3], the “self-cleavage kobs at 2500 uM GlcN6P” value was less than 1e-05 s⁻¹. Besides, the “self-cleavage kobs at 10000 uM GlcN6P” value with glucosamine-6-phosphate [4] is less than 1e-05 s⁻¹.
Turning to AUAAAAGCGCCAGAACUACAGAAAUGUAGUUGACGAUGAGGAGGUUUAUCGAAUUUUCGGCGGAUACCUCCAAA [G37U G66A], the “self-cleavage kobs at 40 uM GlcN6P” value with glucosamine-6-phosphate [1] is less than 1e-05 s⁻¹. Besides, in the data set with glucosamine-6-phosphate [2], the “self-cleavage kobs at 640 uM GlcN6P” value is less than 1e-05 s⁻¹.
With AUAAAAGCGCCAGAACUACAGAAAUGUAGUUGACGAGGAGGACGUGUAUCGAAUUUUCGGCGGAUGCCCCCAAA [G43C U46G U69C], the “self-cleavage kobs at 40 uM GlcN6P” value with glucosamine-6-phosphate [1] is less than 1e-05 s⁻¹.
As for AUAAAAGCGCCAAAUCUACAGAAAUGUAGUUGACGAGGAGUAGGUUUAUAGAAAUUCCGGCGGAUGCCUCCAAA [G13A A15U G41U C50A U54A U57C], the “self-cleavage kobs at 40 uM GlcN6P” value with glucosamine-6-phosphate [1] is less than 1e-05 s⁻¹. For the same variant, the “self-cleavage kobs at 10000 uM GlcN6P” value in the data set with glucosamine-6-phosphate [4] is less than 1e-05 s⁻¹.
Turning to AUAAAAGCGCUAGAACUACAGAAAUGUAGUUGACGAGGAGGCGGUUUAUCGAAUUUUCGGCGGAUGCCUCCAAA [C11U A42C], the “self-cleavage kobs at 40 uM GlcN6P” value with glucosamine-6-phosphate [1] was less than 1e-05 s⁻¹. Besides, the “self-cleavage kobs at 160 uM GlcN6P” value in the data set with glucosamine-6-phosphate [5] was less than 1e-05 s⁻¹. Further, the “self-cleavage kobs at 640 uM GlcN6P” value with glucosamine-6-phosphate [2] is less than 1e-05 s⁻¹. Besides, in the data set with glucosamine-6-phosphate [3], the “self-cleavage kobs at 2500 uM GlcN6P” value was less than 1e-05 s⁻¹. Further, the “self-cleavage kobs at 10000 uM GlcN6P” value with glucosamine-6-phosphate [4] is less than 1e-05 s⁻¹.
For the variant AUAAAAGCGCCAUAACUACAGAAAUGUAGUUGACGAGGAGGAGGUUUAUCGAAUUUUCGCCGGAUGCCUCCAAA [G13U G60C], in the data set with glucosamine-6-phosphate [1], the “self-cleavage kobs at 40 uM GlcN6P” value was less than 1e-05 s⁻¹. The “self-cleavage kobs at 10000 uM GlcN6P” value in the data set with glucosamine-6-phosphate [4] was less than 1e-05 s⁻¹.
For AUAAAAGCGUCAGAACUACAGAAAUGUAUUUGAAGAGGAGGAGGUUUAUCGAAUUUUCGGCGGAUGCCUCCAAA [C10U G29U C34A], in the data set with glucosamine-6-phosphate [1], the “self-cleavage kobs at 40 uM GlcN6P” value was less than 1e-05 s⁻¹. Besides, in the data set with glucosamine-6-phosphate [3], the “self-cleavage kobs at 2500 uM GlcN6P” value is less than 1e-05 s⁻¹. The “self-cleavage kobs at 10000 uM GlcN6P” value with glucosamine-6-phosphate [4] is less than 1e-05 s⁻¹.
Regarding AUAAAAGCGCAAGAACUACAGAAAUGUAGUAGACGAGGGGGAGGUUUAUCGAAUCUUCGGCGGAUUCCUCCAAA [C11A U31A A39G U55C G66U], the “self-cleavage kobs at 40 uM GlcN6P” value with glucosamine-6-phosphate [1] is less than 1e-05 s⁻¹. In addition, the “self-cleavage kobs at 160 uM GlcN6P” value with glucosamine-6-phosphate [5] is less than 1e-05 s⁻¹. Moreover, the “self-cleavage kobs at 10000 uM GlcN6P” value with glucosamine-6-phosphate [4] was less than 1e-05 s⁻¹.
On to AUAAAAGAGCCAGAAGUACAGAAAUGUAGUUGACGAGGAGGAGGUUUAUCGAAUUUUCGGCGGAUGCCUCCAAA [C8A C16G], for which the “self-cleavage kobs at 40 uM GlcN6P” value in the data set with glucosamine-6-phosphate [1] was less than 1e-05 s⁻¹. Also, in the data set with glucosamine-6-phosphate [5], the “self-cleavage kobs at 160 uM GlcN6P” value was less than 1e-05 s⁻¹. In addition, the “self-cleavage kobs at 640 uM GlcN6P” value with glucosamine-6-phosphate [2] is less than 1e-05 s⁻¹. In addition, the “self-cleavage kobs at 2500 uM GlcN6P” value in the data set with glucosamine-6-phosphate [3] was less than 1e-05 s⁻¹. Besides, in the data set with glucosamine-6-phosphate [4], the “self-cleavage kobs at 10000 uM GlcN6P” value is less than 1e-05 s⁻¹.
As for AUAAAAGCGCCAGAACUACAGAAAUGUAGAUGACGAGGAGGAGGUUUAUCGAAUUUUCGGCGGAUGCCGCCAAA [U30A U69G], the “self-cleavage kobs at 40 uM GlcN6P” value with glucosamine-6-phosphate [1] is less than 1e-05 s⁻¹.
Take AUAAAAGCGUCAGCACUACAGAAAUGUAGUUGACGAGGAGGAGGUUUAUCGAAUUUUCGGUGGAUGCCUCCAAA [C10U A14C C61U]: the “self-cleavage kobs at 40 uM GlcN6P” value with glucosamine-6-phosphate [1] was less than 1e-05 s⁻¹. The “self-cleavage kobs at 10000 uM GlcN6P” value with glucosamine-6-phosphate [4] is less than 1e-05 s⁻¹.
With AUAAAGGCGCCAGAACUACAGAAAUGUAGUUGACGAGGAGGAGGUUUAUCGAAUUUUCGGCGAAUGCCUCCAAA [A6G G63A], the “self-cleavage kobs at 40 uM GlcN6P” value with glucosamine-6-phosphate [1] is less than 1e-05 s⁻¹. Further, the “self-cleavage kobs at 160 uM GlcN6P” value in the data set with glucosamine-6-phosphate [5] is less than 1e-05 s⁻¹. Moreover, in the data set with glucosamine-6-phosphate [2], the “self-cleavage kobs at 640 uM GlcN6P” value is less than 1e-05 s⁻¹. Further, the “self-cleavage kobs at 2500 uM GlcN6P” value in the data set with glucosamine-6-phosphate [3] is less than 1e-05 s⁻¹. In the data set with glucosamine-6-phosphate [4], the “self-cleavage kobs at 10000 uM GlcN6P” value is less than 1e-05 s⁻¹.
For the variant AUAAAAGCGUCAGAACUACAUAAAUGUAGUUGACGAGGAGGAGGUUUAUCGAAUUUUCCGCGGAUGCCUCCAAA [C10U G21U G59C], in the data set with glucosamine-6-phosphate [1], the “self-cleavage kobs at 40 uM GlcN6P” value was less than 1e-05 s⁻¹. The “self-cleavage kobs at 640 uM GlcN6P” value in the data set with glucosamine-6-phosphate [2] was less than 1e-05 s⁻¹. In addition, in the data set with glucosamine-6-phosphate [3], the “self-cleavage kobs at 2500 uM GlcN6P” value was less than 1e-05 s⁻¹.
